Series [1] has as its target activated caspase-9, His6-tagged, RED-tris-NTA labelled (UniProt P55211). Kind of series: MST.
Series [2] has as its target activated caspase-3 (WT), His6-tagged, RED-tris-NTA labelled (UniProt P42574). The experiment in a line: MST.
For series [3], the target named is activated caspase-7, His6-tagged, RED-tris-NTA labelled (UniProt P55210). Kind of series: MST.
The target in series [4] is BIRC6 (Baculoviral IAP repeat-containing protein 6), full-length, wild-type, tag removed (UniProt Q9NR09). The experiment in a line: SEC-MALS. The settings on record: remark: other sources report otherwise.
Series [5] has the same target. The experiment in a line: cryo-EM structure. To be noted: remark: other sources report otherwise.
Series [6] has the same target. Kind of series: cryo-EM structure. The settings on record: remark: other sources report otherwise. The source holds these as a separate data set.
For series [7], the target named is Alexa555-SMAC (WT), a.a. 56-239 with a C-terminal cysteine (UniProt Q9NR28). Kind of series: fluorescence polarisation.
Series [8] has as its target T1, BIRC6 (Baculoviral IAP repeat-containing protein 6), full-length, wild-type, tag removed (UniProt Q9NR09 1-4857). Kind of series: fluorescence polarisation.
Series [9] concerns the molecule itself. Kind of series: cryo-EM structure.
The target of series [10] is T1, BIRC6 (Baculoviral IAP …). The experiment in a line: fluorescence polarisation. This is another data set of the same source.

We go through six molecules from publication doi:10.1101/2022.08.30.505748 (bioRxiv, 2022).

Where two headings read alike, the source gives them in different places.

T1 sequence (Q9NR09 whole entry): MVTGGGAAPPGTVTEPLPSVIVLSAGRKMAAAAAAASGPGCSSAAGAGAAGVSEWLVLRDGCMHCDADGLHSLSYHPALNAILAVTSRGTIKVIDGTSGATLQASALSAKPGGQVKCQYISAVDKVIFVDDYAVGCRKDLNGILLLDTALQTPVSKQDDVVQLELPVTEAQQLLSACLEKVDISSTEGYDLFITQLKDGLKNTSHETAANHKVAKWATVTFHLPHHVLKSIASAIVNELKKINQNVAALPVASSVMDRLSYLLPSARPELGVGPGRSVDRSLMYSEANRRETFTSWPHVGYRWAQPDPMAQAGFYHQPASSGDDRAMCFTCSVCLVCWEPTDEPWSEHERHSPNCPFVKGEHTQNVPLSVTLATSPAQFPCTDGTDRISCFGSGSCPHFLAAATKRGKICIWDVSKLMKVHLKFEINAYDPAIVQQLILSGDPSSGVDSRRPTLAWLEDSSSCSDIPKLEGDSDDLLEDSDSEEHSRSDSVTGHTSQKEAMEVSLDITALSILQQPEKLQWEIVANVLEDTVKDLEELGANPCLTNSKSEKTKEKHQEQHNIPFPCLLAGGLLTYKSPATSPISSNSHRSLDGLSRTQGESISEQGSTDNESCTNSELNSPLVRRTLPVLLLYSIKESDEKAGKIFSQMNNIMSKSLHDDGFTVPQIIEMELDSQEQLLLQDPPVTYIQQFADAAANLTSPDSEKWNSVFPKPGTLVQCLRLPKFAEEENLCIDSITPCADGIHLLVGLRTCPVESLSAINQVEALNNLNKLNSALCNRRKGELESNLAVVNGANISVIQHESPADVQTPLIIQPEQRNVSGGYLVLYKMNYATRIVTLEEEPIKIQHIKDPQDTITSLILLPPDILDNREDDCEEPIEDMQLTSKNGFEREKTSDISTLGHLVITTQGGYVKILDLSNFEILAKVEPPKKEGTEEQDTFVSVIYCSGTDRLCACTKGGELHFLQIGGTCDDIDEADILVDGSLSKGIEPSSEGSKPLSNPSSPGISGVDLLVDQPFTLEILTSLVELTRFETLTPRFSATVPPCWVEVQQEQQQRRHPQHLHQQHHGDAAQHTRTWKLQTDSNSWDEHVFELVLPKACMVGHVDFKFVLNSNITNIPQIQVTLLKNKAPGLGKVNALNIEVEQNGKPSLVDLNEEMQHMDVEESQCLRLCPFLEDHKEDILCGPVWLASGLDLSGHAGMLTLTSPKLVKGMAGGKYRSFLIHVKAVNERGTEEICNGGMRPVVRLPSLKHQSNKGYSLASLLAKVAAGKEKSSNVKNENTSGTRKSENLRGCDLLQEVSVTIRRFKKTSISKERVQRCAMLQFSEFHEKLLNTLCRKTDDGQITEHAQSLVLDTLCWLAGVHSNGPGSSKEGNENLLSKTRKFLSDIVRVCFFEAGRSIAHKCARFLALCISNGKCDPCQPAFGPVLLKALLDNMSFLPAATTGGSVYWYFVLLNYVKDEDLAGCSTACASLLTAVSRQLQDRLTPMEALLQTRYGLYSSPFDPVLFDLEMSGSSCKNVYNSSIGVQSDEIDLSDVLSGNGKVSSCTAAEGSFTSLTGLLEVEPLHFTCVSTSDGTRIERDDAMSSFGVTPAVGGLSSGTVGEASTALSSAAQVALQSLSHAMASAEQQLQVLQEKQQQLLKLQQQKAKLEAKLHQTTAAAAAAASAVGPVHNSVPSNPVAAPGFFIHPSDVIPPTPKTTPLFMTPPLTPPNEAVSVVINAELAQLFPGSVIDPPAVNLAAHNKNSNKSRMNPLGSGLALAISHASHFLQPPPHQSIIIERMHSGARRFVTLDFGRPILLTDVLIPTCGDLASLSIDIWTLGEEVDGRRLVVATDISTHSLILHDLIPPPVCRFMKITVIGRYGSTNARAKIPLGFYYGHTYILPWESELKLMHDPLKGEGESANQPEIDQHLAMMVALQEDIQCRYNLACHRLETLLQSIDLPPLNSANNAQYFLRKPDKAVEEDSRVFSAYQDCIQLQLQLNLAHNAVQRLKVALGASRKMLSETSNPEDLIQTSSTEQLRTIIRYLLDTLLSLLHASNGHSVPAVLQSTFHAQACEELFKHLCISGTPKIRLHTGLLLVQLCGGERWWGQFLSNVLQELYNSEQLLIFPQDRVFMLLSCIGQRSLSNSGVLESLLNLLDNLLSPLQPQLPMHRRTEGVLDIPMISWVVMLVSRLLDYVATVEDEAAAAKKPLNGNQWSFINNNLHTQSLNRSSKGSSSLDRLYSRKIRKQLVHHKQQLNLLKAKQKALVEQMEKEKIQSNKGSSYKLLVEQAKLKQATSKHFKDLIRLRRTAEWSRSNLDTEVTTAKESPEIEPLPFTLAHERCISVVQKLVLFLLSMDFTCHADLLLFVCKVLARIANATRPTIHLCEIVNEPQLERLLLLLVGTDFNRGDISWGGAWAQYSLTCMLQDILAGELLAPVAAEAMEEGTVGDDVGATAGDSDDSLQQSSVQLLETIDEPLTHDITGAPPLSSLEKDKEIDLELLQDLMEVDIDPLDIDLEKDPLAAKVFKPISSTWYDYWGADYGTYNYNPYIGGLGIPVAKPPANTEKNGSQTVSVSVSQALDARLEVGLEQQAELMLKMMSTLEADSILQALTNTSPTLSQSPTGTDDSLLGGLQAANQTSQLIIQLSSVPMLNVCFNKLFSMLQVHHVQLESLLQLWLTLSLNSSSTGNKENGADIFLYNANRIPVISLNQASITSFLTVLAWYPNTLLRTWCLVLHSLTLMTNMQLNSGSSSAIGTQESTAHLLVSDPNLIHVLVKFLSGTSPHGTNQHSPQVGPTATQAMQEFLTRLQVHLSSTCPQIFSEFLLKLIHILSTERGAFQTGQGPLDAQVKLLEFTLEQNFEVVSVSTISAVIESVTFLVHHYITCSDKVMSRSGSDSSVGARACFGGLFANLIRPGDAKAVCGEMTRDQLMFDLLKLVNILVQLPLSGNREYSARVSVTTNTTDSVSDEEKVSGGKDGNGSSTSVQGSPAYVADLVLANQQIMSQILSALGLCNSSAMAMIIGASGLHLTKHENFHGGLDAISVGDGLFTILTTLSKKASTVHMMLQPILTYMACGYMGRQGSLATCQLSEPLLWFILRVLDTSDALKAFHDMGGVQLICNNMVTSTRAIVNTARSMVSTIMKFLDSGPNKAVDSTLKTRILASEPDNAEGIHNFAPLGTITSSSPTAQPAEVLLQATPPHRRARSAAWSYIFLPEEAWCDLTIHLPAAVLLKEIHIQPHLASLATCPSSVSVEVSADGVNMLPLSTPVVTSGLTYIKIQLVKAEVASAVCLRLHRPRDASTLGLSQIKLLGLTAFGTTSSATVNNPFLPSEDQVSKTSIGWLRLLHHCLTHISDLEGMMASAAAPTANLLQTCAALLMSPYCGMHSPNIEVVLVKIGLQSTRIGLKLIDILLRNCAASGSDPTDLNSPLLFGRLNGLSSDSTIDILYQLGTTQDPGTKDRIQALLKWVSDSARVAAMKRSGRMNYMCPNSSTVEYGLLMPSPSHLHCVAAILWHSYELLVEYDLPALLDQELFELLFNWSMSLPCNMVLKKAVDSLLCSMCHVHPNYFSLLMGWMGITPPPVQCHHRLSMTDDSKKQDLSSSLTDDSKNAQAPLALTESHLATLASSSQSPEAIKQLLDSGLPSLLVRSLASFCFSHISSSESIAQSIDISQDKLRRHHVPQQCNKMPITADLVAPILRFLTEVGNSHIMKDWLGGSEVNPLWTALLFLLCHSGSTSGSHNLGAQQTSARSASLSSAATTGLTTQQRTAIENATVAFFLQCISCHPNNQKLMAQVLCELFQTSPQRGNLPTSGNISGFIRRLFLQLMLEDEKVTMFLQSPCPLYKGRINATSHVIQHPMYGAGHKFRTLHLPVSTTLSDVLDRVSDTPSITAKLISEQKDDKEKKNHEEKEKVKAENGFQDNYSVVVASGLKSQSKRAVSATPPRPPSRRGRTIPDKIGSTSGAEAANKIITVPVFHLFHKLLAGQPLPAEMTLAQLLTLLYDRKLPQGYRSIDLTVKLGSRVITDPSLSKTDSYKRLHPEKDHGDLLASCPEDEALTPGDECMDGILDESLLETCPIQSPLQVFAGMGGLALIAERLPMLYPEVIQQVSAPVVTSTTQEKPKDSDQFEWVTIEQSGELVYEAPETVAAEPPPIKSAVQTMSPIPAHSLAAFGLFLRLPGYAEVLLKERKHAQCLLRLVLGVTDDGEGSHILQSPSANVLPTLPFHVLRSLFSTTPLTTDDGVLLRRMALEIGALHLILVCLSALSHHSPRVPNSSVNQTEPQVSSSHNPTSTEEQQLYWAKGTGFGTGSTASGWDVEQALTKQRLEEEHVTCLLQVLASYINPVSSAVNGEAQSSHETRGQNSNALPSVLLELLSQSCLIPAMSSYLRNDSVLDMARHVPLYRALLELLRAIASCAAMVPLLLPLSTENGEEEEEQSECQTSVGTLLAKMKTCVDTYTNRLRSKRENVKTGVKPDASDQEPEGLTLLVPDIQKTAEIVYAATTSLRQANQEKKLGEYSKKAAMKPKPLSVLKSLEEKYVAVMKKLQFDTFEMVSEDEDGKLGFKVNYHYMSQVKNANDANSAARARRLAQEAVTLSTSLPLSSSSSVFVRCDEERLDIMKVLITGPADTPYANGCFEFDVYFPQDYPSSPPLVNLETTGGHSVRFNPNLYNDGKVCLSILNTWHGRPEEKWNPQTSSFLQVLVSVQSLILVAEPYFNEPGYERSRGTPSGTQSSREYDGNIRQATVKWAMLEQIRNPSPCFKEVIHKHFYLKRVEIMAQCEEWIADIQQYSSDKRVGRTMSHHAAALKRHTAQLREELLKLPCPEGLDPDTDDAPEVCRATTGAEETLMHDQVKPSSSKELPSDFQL
Sequence of activated caspase-3 (WT), His6-tagged, RED-tris-NTA labelled (P42574 whole entry): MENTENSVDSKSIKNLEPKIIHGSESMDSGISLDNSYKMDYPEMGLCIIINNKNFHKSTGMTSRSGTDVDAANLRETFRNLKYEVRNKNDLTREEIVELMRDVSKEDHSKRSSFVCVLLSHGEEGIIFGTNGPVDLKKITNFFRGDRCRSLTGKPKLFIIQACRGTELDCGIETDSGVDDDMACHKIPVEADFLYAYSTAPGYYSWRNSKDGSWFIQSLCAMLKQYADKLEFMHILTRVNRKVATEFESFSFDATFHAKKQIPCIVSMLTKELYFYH

As to “BIRC6 (Baculoviral IAP repeat-containing protein 6), full-length, wild-type, tag removed (from UniProt Q9NR09 1-4857) (enzyme)”, the results for the Kd in series [1], in [2] and in [3] were 46.4 nM, 8.9 nM and 17.1 nM, respectively.

Turning to “BIRC6 (Baculoviral IAP repeat-containing protein 6), full-length, wild-type, tag removed, Q9NR09 1-4857”, the stoichiometry N in [4], in series [5] and in [6] was 2 in each case. The molecule further yielded a fold greater affinity than for monomeric SMAC (V81D) in [7] above 10 fold.

B1: SMAC (second mitochondria-derived activator of caspase), a.a. 56-239, wild-type, unlabelled (natural protein)
chain: AVPIAQKSEPHSLSSEALMRRAVSLVTDSTSTFLSQTTYALIEAITEYTKAVYTLTSLYRQYTSLLGKMNSEEEDEVWQVIIGARAEMTSKHQEYLKLETTWMTAVGLSEMAAEAAYQTGADQASITARNHIQLVKLQVEEVHQLSRKAETKLAEAQIEELRQKTQEEGEERAESEQEAYLRED
On to B1, for which, in series [8], the IC50 was determined as 8.3 nM and the Kd was around 0.6 nM. Further, in series [9], the “stoichiometry N” value came to 2.

B2: Alexa555-SMAC (WT), a.a. 56-239 with a C-terminal cysteine (natural protein)
chain: AVPIAQKSEPHSLSSEALMRRAVSLVTDSTSTFLSQTTYALIEAITEYTKAVYTLTSLYRQYTSLLGKMNSEEEDEVWQVIIGARAEMTSKHQEYLKLETTWMTAVGLSEMAAEAAYQTGADQASITARNHIQLVKLQVEEVHQLSRKAETKLAEAQIEELRQKTQEEGEERAESEQEAYLREDC
modifications: Alexa Fluor 555 on the C-terminal cysteine
In the case of B2, the binding result in series [10] is on record as “binds”.

Molecule AVPIAQKSEC (Cy3 on the C-terminal cysteine; C-terminal amide) [Cy3-labelled SMAC N-terminal peptide, AVPIAQKSEC(Cy3)-Am] yielded an equilibrium dissociation constant (Kd) in series [10] of 35.6 ± 3 nM.

B3: Alexa 555 monomeric SMAC (V81D), a.a. 56-239 with a C-terminal cysteine (natural protein)
chain: AVPIAQKSEPHSLSSEALMRRAVSLDTDSTSTFLSQTTYALIEAITEYTKAVYTLTSLYRQYTSLLGKMNSEEEDEVWQVIIGARAEMTSKHQEYLKLETTWMTAVGLSEMAAEAAYQTGADQASITARNHIQLVKLQVEEVHQLSRKAETKLAEAQIEELRQKTQEEGEERAESEQEAYLREDC
modifications: Alexa Fluor 555 on the C-terminal cysteine
As to B3, binding in series [10] was put at a Kd of 12.1 ± 1.5 nM.
